Test results published in patent publication US20250297232A1, “BACTERIAL MYELOPEROXIDASE-CATALASE AND APPLICATIONS THEREOF” (priority 2022, published 2025).

Columns and labels:
[1] = Pre-steady state: return of wt RbMPO to its native state, I^− range; type: biochemical; settings: from pre-steady state return to native state with I^−, SCN^−, Br^−, Cl^−
Protocol: (§1) Kinetic parameters under pre-steady-state condition were performed with a Biologic SFM400 stopped-flow at 412 nm, 37° C. and with 50 mM sodium phosphate buffer at pH7.5. […] An exponential linear fit was applied to each kinetic using the following formula: […]
(§2) The return of the enzyme to its native state was studied by the impact of increasing concentrations of (pseudo)-halides substrates on compound I (FIG. 9B). […] It is the time difference (s) between the two characteristic steps that allowed the calculation of the values of the Vreturn(μM^−1.s^−1) values: […]

[2] = Steady-state kinetics by stopped-flow, H2O2 range at fixed (pseudo)-halogen ions; type: biochemical; settings: wt RbMPO 267 nM
Protocol: For the halides Cl^− and Br^−, the ranges were not performed at halide saturation but at 500 and 100 mM respectively (data not shown).

[3] = Steady-state kinetics by stopped-flow, NaBr (Tau-NHBr formation, 289 nm); type: biochemical; settings: Br^− 500 mM, 267 nM RbMPO, H2O2 79 μM
Protocol: (§3) pH- and temperature-dependent studies were carried out for each substrate.
(§4) These temperatures were reached by using a stopped-flow coupled to a cryostat.
(§5) For temperature and pH measurements, RbMPO was set at the same concentration as in the determination of steady state kinetics parameters.

[4] = Steady-state kinetics by stopped-flow, NaCl (Tau-NHCl formation, 253 nm); type: biochemical; settings: NaCl range (k2), 300 nM of enzyme and 79 μM of H2O2
Protocol: as §3, §4, §5

E. coli ATCC 25922 = experiment: Microbicidal activity: counting colonies on Petri dishes; type: cell-based; settings: 1 h contact with 1.10^6 CFU/mL, 25 mM SCN^−, pH7.4; enzyme alone: wt RbMPO 300 nM or GOxaspniger 25 nM
Protocol: 10 mL of TSB medium (pH7.4) was inoculated with a freshly obtained colony of E. coli ATCC 25922, and the culture was incubated at 37° C. and 190 rpm overnight. In the morning, 25 mL of TSB medium were inoculated with the previous day's pre-culture to obtain an OD620 nm of 0.07 at TO. When the bacterial culture reached the exponential phase, the bacterial solution was diluted 10-fold in TSB in order to reach 1.10^6 CFU/mL. This dilution was then contacted with the enzyme solution for 1 hour (in a final volume of 1 mL). Further dilutions were then made (10^−1, 10^−4, 10−5, 10^−6). 100 μL of these solutions were spread on a Petri dish containing TSB agar medium and placed at 37° C. overnight. The next day, the surviving colonies were counted and the number of CFU/mL was calculated using the formula below: […]

[5] = Pre-steady state: return of wt RbMPO to its native state, Cl^− range; type: biochemical; settings: H2O2: 20 μM
Protocol: as §1, §2

[6] = Pre-steady state: return of wt RbMPO to its native state, Br^− range; type: biochemical; settings: H2O2: 20 μM
Protocol: as §1, §2

[7] = Catalase activity (absorbance decay at 240 nm, stopped-flow); type: biochemical; settings: for kss: catalase, 300 nM enzyme, pH 7.5, 500 μM H2O2; for catalase activity, in words: 2 μM wt RbMPO, 37° C.
Protocol: Catalase activity was measured using the stopped-flow set-up, which was configured to measure absorbance decay at 240 nm and at 37° C.

[8] = Peroxidase activity with ABTS; type: biochemical; settings: ABTS range; 0.5 nM wt RbMPO, 79 μM H2O2, pH5.5, 37° C.
Protocol: The plate reader was configured to run a 10 min kinetics at 430 nm with the following ABTS concentration range: 0, 0.1, 0.2, 0.5, 1, 2, 5, 10, 15, 20, 30 and 40 mM.

[9] = tested on: E. coli strain ATCC 25922; experiment: Microbicidal activity: bacterial growth kinetics in a microplate (A620nm, 16 h); type: cell-based; settings: for inhibition of bacterial growth: glucose 14 mM, pH 7.4, 37° C.
Protocol: The microbicidal activity of RbMPO towards the E. coli strain ATCC 25922 was evaluated by two independent experiments.
E. coli 25922 were grown on TSB-agar for 16 h at 37° C. One colony is grown in 10 ml of TSB medium under stirring at 190 rpm at 37° C. The optical density (OD) of the bacterial preculture was measured at 620 nm in a spectrophotometer (Ultrospec 10, Biochrom). 25 ml of TSB medium was inoculated to obtain an OD of approximately 0.09. When the OD was between 1 and 2, a dilution in 10 mL of TSB medium was performed to obtain 2×10^6 CFU/ml. Bactericidal tests were performed in 96-well microplates under a final volume of 100 μl with 10^6 CFU/ml. The plate cover was treated with 0.05% TritonX−100 and 20% ethanol to prevent condensation and thus avoid misreading of the wells by the instrument. The solution was allowed to act on the lid for 10 minutes, then removed and dried under a class II biological safety cabinet. Each tested condition was performed at least in triplicate and each experiment was repeated at least 3 times. The kinetics was set to 16 h with a measurement at 620 nm every 15 minutes in a microplate reader (Wallac Victor 2,1420 Multilabel counter) thermostated at 37° C. [shaking duration: 10.0s; shaking speed: fast; shaking diameter: 0.5 mm; shaking type: orbital; measurement time: 0.2s; numbers of replicates: 60; time between replicates: 900 s; label: P620]. […] 5 mM bleach was used as a positive control and bacteria alone was used as a negative control. • By counting colonies on Petri dishes

[10] = Stability of myeloperoxidase activity of wt RbMPO on storage in different buffers; type: physicochemical; settings: stored in PBS buffer pH 6.6 at 37° C., up to 60 minutes
Protocol: The enzyme was concentrated at […] for the 4° C. storage condition and at 132.2 μM for the 37° C. storage condition. The MPO activity of the enzyme was assessed at different time points by a standard activity test.
The MPO activity of the enzyme was assessed at different time points by a standard activity test. To do so, the concentrated enzyme was diluted and contacted with H2O2, NaCl and APF.
The value obtained at TO is defined as 100% of the enzymatic (MPO) activity at the temperature tested and all the other activities are calculated from this TO timepoint.

B1: wt RbMPO: novel bacterial heme peroxidase (myeloperoxidase-catalase) of about 78 KDa from Rhodopirellula baltica, SEQ ID NO: 1, produced recombinantly in E. coli (protein, listed as Rhodopirellula baltica)
chain: MLFWSKRTRKHPGRKRRRLRSEQLESRQLLAADFGGYRHNIYDAEDVNDDGRVSAIDALLVINAMTSETSRDENVFTDVNGDGRRSALDALRVINRIERGDVFPIDTSGDEDLNTLLPEMPSEVRSIDGSGNNPNDHLWGSVGQRLIRMAPAAYGDGISTLAGANRPSAREVSNVLSAMNTSQVLNDRGLSAFVYVWGQFIDHDLGLTESDEHGEAIDISVPEGDLWFDPMGSGEAVIPMTRTPIADGTGTSVGNPAQQFNQITAFIDGSMVYGSDAATAERLRTFAGGRLAISDNGLLPMDESGMVIAGDVRASENVGLTAIQTLFVREHNRLADEIFAADPEATDEEIYQRARLVVASLIQSITYNEFLPALLGQRAMDSYRGYDASVNPGIANEFSTAAFRLGHSTLRDEVGFMSNDGRESKDEMELKDAFFHASMLEETGIDSLLKFDASVQAQEIDLAVVDSLRNFLFGPPGAGGLDLVAMNIQRGRDHGLSDYNTTRQAYGLDRVETFDQITGDVELQQKLASLYGTVDNIDLWVGLMAEDHQHDASVGELTGLIIADQFQRTRDGDRFFYKNVLTDSEVESIERSTLADLIERNTSVDGLQENVFFMQVELRGRVILASSIPPNTMPSEVREEEIRGVSGMAIELIDASGKLVDSTVSDQHGNYRFRALSETGDYQVRLSESGEAMDVLVAHGAERIRGLDFIVLA
- substrate specificity [1]: I^−>SCN^−>Br^− Cl^−
- KMapp ([2]; Br (100 mM)): 0.23 ± 0.21 mM
- KMapp ([2]; SCN (5 mM)): 0.12 ± 0.04 mM
- kss ([3]; 37° C., pH 4): 0 ± 0 s⁻¹
- kss ([3]; 37° C., pH 5): 1.5 ± 0.004 s⁻¹
- kss ([3]; 37° C., pH 6): 14.5 ± 0.03 s⁻¹
- kss ([3]; 37° C., pH 7): 11.0 ± 0.02 s⁻¹
- kss ([3]; 37° C., pH 8): 4.8 ± 0.01 s⁻¹
- kss ([3]; 37° C., pH 9): 1.3 ± 0.004 s⁻¹
- kss ([3]; 37° C., pH 10): 0.8 ± 0.007 s⁻¹
- kss ([3]; pH 7.5, 10° C.): 9.5 ± 0.01 s⁻¹
- kss ([3]; pH 7.5, 20° C.): 23.4 ± 0.02 s⁻¹
- kss ([3]; pH 7.5, 30° C.): 24.8 ± 0.02 s⁻¹
- kss ([3]; pH 7.5, 37° C.): 19.5 ± 0.01 s⁻¹
- kss ([3]; pH 7.5, 40° C.): 29.1 ± 0.02 s⁻¹
- kss ([3]; pH 7.5, 50° C.): 21.1 ± 0.01 s⁻¹
- kss ([3]; pH 7.5, 60° C.): 37.8 ± 0.03 s⁻¹
- kss/[Cl^−] [4]: 5.46 ± 0.67 M⁻¹ s⁻¹
- surviving bacteria (E. coli ATCC 25922): 13,850,000±4,454,773 CFU/mL
- kreturn/K1/2 [5]: 5169 ± 4872 M⁻¹ s⁻¹
- kreturn/K1/2 [6]: 607.77 ± 161.51 M⁻¹ s⁻¹
- catalase activity kept ([7]; about 50° C. to about 60° C.): more than 80%
- catalase activity kept ([7]; between 20° C. and 40° C.): more than 90%
- kss ([7]; 10° C.): 2.04 ± 0.01 s⁻¹
- kss ([7]; 20° C.): 2.55 ± 0.02 s⁻¹
- kss ([7]; 30° C.): 2.75 ± 0.01 s⁻¹
- kss ([7]; 37°): 2.78 ± 0.01 s⁻¹
- kss ([7]; 40° C.): 2.64 ± 0.01 s⁻¹
- kss ([7]; 50° C.): 2.43 ± 0.01 s⁻¹
- kss ([7]; 60° C.): 2.39 ± 0.01 s⁻¹
- catalase activity, in words ([7]; pH4, 5, 8 and 9): no detectable catalase activity
- catalase activity, in words ([7]; pH6 and pH10): negligible
- k2 [8]: 10620 M⁻¹ s⁻¹
- excess of wt RbMPO over GOxaspniger required for 100% bactericidal effect ([9]; 10 nM GOxaspniger, 25 mM SCN^−, pH 7.4): at least 15 times
- inhibition of bacterial growth ([9]; 150 nM wt RbMPO and 10 nM GOxaspniger (15:1 ratio), 25 mM SCN^−): 100%
- inhibition of bacterial growth ([9]; 300 nM wt RbMPO and 25 nM GOxaspniger (12:1 ratio), 25 mM SCN^−): 100%
- inhibition of bacterial growth ([9]; 300 nM wt RbMPO and 30 nM GOxaspniger (10:1 ratio), 25 mM SCN^−): 100%
- bactericidal effect ([9]; 25 mM SCN (pH 7.4), between 10 and 30 nM GOxaspniger, from 300 nM wt RbMPO): 100%
- fall of myeloperoxidase activity [10]: 50%
